# In US20200317768A1 (published 2020):
# Changes are numbered by the printed parent chain.
# T1: cynomolgus monkey FcγRIIa1 extracellular domain, His-tagged (cynomolgus monkey)
# T1 construct: also called cyno FcγRIIa1; cynoFcgRIIa1
# T1 chain: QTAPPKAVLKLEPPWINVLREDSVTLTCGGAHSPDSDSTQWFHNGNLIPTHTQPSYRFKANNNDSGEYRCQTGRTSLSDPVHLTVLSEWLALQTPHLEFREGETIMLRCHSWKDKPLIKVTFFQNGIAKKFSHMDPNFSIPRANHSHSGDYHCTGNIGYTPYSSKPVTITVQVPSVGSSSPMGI
# T2: cynomolgus monkey FcγRIIa2 extracellular domain, His-tagged (cynomolgus monkey)
# T2 construct: also called cyno FcγRIIa2; cynoFcgRIIa2
# T2 chain: T1 chain with P95T, T121A, I127K, A128S, K130N, D135N, R142Q
# T3: cynomolgus monkey FcγRIIa3 extracellular domain, His-tagged (cynomolgus monkey)
# T3 construct: also called cyno FcγRIIa3; cynoFcgRIIa3
# T3 chain: T1 chain with P95T, T121A, A128S, H133P, D135N
# T4: cynomolgus monkey FcγRIIb extracellular domain, His-tagged (cynomolgus monkey)
# T4 construct: also called cyno FcγRIIb; cynoFcγRIIb
# T4 chain: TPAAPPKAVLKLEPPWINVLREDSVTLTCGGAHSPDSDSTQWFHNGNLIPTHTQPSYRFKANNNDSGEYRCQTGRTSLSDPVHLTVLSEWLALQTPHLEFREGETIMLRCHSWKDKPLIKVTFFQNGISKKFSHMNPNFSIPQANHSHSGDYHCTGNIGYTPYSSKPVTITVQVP
# T5: cynomolgus monkey FcγRIIIaS extracellular domain, His-tagged (cynomolgus monkey, UniProt Q8SPW2 21-206 at identity 1.00))
# T5 construct: also called cyno FcγRIIIaS; cynoFcγRIIIaS
# T5 chain: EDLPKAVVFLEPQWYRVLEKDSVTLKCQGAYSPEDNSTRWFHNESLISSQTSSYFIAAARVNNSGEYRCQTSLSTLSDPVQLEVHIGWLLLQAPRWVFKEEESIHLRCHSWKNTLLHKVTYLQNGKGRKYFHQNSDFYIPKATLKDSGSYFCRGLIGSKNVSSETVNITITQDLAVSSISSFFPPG
# T6: human FcγRIIaH extracellular domain, His-tagged (human, UniProt P12318 34-217)
# T6 construct: also called human FcγRIIa (type H); FcgRIIaH
# T6 sequence: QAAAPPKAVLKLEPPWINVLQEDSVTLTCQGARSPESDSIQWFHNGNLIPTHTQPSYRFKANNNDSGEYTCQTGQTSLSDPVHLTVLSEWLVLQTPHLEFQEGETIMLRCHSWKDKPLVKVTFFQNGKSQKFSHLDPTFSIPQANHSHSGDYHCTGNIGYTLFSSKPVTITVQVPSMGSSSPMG
# T7: human FcγRIIaR extracellular domain, His-tagged (human, UniProt P12318 34-217)
# T7 construct: also called human FcγRIIa (type R); FcgRIIaR
# T7 chain: T6 sequence with H134R
# T8: human FcγRIIb extracellular domain, His-tagged (human, UniProt P31994 43-217)
# T8 construct: also called FcgRIIb (human)
# T8 sequence: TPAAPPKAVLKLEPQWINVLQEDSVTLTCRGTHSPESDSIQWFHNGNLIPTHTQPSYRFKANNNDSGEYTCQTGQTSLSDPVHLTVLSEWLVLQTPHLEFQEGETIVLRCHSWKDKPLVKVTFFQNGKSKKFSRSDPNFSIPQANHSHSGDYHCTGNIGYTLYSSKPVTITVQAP
# B1: M103205H795-MY069/M103202L889-SK1 (antibody, human IgG1, kappa)
# heavy: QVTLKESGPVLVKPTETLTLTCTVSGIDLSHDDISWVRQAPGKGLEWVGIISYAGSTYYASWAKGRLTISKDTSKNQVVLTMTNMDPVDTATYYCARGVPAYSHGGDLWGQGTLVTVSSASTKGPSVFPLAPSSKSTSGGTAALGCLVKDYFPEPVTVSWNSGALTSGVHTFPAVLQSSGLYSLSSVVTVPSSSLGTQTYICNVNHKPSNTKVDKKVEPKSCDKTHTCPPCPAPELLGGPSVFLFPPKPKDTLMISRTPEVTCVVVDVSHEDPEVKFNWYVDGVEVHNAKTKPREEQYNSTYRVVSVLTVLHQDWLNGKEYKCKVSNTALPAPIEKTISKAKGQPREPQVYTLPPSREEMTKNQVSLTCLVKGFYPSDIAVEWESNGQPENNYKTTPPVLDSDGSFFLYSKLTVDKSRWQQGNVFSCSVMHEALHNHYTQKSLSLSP
# light: DIVMTQSPATLSLSPGERATLSCTSSQSVYHANWLSWFQQKPGQPPKLLIYWASTLAYGVPSRFSGSGSGTDFTLTISSLQPEDAATYYCAGGYGGGRYAFGQGTKVEIKRTVAAPSVFIFPPSDEQLKSGTASVVCLLNNFYPREAKVQWKVDNALQSGNSQESVTEQDSKDSTYSLSSTLTLSKADYEKHKVYACEVTHQGLSSPVTKSFNRGEC
# notes: Substitution put into M103205H795-SG1
# B2: M103205H795-MY070/M103202L889-SK1 (antibody, human IgG1, kappa)
# heavy: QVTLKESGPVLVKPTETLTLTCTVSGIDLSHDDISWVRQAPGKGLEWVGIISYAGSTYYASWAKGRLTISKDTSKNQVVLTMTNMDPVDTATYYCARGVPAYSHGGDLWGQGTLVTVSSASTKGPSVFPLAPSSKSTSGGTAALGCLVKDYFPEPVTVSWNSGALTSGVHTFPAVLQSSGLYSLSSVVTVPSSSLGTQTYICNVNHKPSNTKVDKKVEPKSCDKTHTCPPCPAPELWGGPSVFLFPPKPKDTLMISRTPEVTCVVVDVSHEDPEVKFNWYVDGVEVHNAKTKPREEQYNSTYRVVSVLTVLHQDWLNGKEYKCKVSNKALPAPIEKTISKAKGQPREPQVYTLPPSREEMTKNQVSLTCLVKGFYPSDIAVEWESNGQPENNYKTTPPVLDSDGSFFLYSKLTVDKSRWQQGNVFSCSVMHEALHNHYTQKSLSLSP
# light: B1 light
# notes: as for B1
# B3: M103205H795-MY071/M103202L889-SK1 (antibody, human IgG1, kappa)
# heavy: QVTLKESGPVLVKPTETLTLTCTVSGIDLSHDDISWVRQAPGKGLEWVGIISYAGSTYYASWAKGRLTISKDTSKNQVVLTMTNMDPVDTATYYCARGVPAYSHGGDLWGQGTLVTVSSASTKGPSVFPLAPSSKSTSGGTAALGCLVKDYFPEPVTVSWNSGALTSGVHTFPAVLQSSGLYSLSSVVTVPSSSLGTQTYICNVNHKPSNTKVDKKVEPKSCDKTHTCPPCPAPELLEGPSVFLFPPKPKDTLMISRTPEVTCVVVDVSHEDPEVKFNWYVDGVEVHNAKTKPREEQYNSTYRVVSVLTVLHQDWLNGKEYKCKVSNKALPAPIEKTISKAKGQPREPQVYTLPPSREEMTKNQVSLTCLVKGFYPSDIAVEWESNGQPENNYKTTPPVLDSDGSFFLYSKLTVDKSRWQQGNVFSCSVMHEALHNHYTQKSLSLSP
# light: B1 light
# notes: as for B1
# B4: M103205H795-MY072/M103202L889-SK1 (antibody, human IgG1, kappa)
# heavy: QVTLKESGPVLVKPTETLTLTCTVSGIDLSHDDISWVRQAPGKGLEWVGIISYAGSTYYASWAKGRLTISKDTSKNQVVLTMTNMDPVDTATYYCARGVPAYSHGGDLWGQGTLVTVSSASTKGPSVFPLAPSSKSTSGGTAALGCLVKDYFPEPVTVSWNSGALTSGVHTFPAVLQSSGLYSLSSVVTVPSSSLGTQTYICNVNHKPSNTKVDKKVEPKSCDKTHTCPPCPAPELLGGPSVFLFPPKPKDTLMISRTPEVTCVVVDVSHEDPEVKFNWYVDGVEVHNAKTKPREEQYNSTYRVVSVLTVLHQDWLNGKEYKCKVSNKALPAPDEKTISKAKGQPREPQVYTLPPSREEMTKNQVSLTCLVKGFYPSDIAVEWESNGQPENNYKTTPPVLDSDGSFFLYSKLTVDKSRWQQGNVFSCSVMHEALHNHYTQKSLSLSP
# light: B1 light
# notes: as for B1
# B5: M103205H795-MY073/M103202L889-SK1 (antibody, human IgG1, kappa)
# heavy: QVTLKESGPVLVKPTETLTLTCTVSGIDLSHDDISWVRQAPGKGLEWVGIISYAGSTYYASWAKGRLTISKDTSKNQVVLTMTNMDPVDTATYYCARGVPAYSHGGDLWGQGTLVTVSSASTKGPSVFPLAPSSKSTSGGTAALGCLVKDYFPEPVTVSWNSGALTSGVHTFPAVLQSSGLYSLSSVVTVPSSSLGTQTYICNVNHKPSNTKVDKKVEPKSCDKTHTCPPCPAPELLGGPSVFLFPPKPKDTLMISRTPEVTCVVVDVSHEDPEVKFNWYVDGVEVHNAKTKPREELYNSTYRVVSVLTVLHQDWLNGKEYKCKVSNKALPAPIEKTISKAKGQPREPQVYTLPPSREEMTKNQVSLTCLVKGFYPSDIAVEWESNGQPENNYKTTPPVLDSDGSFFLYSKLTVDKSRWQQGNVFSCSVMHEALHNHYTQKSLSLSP
# light: B1 light
# notes: as for B1
# B6: M103205H795-MY124/M103202L889-SK1 (antibody, human IgG1, kappa)
# heavy: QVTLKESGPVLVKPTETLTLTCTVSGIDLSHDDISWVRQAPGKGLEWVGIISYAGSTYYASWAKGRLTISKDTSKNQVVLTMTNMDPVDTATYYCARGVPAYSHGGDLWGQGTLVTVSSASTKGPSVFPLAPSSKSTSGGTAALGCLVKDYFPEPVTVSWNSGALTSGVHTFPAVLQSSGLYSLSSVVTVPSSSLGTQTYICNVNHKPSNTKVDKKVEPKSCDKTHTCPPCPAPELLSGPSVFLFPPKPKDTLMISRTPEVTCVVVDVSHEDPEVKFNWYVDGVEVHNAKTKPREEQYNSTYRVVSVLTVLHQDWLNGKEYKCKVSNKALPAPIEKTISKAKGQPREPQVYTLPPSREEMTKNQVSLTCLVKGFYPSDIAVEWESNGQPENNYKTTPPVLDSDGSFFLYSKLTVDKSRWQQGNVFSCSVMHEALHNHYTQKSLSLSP
# light: B1 light
# notes: as for B1
# B7: M103205H795-MY196/M103202L889-SK1 (antibody, human IgG1, kappa)
# heavy: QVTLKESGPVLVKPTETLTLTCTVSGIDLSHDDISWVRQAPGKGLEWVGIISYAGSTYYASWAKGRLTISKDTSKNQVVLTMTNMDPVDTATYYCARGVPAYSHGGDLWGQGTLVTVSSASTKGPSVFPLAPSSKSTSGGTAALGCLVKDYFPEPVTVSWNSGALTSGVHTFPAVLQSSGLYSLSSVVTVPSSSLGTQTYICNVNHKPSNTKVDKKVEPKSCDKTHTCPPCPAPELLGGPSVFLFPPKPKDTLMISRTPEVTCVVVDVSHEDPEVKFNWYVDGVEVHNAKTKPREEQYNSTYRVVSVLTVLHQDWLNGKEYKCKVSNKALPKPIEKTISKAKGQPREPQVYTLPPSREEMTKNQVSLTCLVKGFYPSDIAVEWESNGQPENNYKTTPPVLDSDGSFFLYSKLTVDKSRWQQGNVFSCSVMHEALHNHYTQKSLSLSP
# light: B1 light
# notes: as for B1
# What was measured:
# Assay in all cases: SPR, antibody captured, FcgR analyte
# [1] = biological target: T1, cynomolgus monkey FcγRIIa1 …
# [2] = biological target: T2, cynomolgus monkey FcγRIIa2 …
# [3] = biological target: T3, cynomolgus monkey FcγRIIa3 …
# [4] = biological target: T4, cynomolgus monkey FcγRIIb extracellular …
# [5] = biological target: T5, cynomolgus monkey FcγRIIIaS …
# [6] = biological target: T6, human FcγRIIaH extracellular domain, …
# [7] = biological target: T7, human FcγRIIaR extracellular domain, …
# [8] = biological target: T8, human FcγRIIb extracellular domain, …
# [9] = biological target: T9, human FcγRIIIaV extracellular domain, His-tagged (human, UniProt P08637 17-208)
# T9 construct: also called FcgRIIIaV
# T9 sequence (P08637 17-208 F176V): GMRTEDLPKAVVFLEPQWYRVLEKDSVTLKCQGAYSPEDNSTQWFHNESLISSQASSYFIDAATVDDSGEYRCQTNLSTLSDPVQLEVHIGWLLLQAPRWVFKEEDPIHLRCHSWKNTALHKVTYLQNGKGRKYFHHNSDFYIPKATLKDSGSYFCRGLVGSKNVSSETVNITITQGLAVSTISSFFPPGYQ
Binder,Kd [1],Kd [2],Kd [3],Kd [4],Kd [5],Kd [6],Kd [7],Kd [8],Kd [9]
B1,1.6 µM,1.6 µM,6.5 µM,0.73 µM,0.086 µM,0.44 µM,0.39 µM,1.6 µM,0.24 µM
B2,2.3 µM,2.5 µM,4.7 µM,1.2 µM,0.49 µM,0.5 µM,0.74 µM,2.6 µM,0.7 µM
B3,5 µM,3.7 µM,9.2 µM,2.5 µM,0.28 µM,0.4 µM,0.45 µM,8.1 µM,0.51 µM
B4,1 µM,1.2 µM,2.6 µM,0.48 µM,0.053 µM,0.25 µM,0.48 µM,1.5 µM,0.12 µM
B5,1.2 µM,1.3 µM,5.1 µM,0.67 µM,0.17 µM,0.24 µM,0.5 µM,2 µM,0.34 µM
B6,2.6 µM,3.1 µM,12 µM,2.2 µM,1.3 µM,0.14 µM,0.52 µM,9.2 µM,5.2 µM
B7,2.5 µM,3 µM,23 µM,2.4 µM,0.6 µM,0.48 µM,1.3 µM,6.2 µM,2.2 µM
